Patent publication US20240270819A1 (ELANCO US, published 2024)

T1: canine IL4 (Sino Biological Inc, Cat #70021-DNAE-5) (canine, UniProt O77762 25-132)
T1 sequence (looked up): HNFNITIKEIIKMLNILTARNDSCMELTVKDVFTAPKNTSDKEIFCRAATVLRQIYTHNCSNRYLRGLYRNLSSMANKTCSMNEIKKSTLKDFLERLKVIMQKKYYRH


Tests used:
[1] = biological target: canine FcRn with a poly-His tag / canine B2M heterodimer complex (canine); assay: SPR (Biacore T200), pH 6.0; biotinylated FcRn/B2M immobilised, Fc as analyte
[2] = biological target: T1, canine IL4 (Sino Biological Inc, Cat …); assay: cell-based or functional assay

| koff [1] [s⁻¹] | TF1 cell proliferation assay (CellTiter-Glo luminescence), IC50 by 4 parameter logistic fit [2] [nM] | Molecule |
| --- | --- | --- |
| 0.241 |  | variant canine IgG-B Fc polypeptide L(23)S |
|  | 2 | canine IL4RECD-IL13RECD-IgGB Fc (Fc fusion, Biotinylated when captured on the tips in the sequential binding experiment; secreted from CHO cells, so glycosylated.) SGSVKVLHEPSCFSDYISTSVCQWKMDHPTNCSAELRLSYQLDFMGSENHTCVPENREDSVCVCSMPIDDAVEADVYQLDLWAGQQLLWSGSFQPSKHVKPRTPGNLTVHPNISHTWLLMWTNPYPTENHLHSELTYMVNVSNDNDPEDFKVYNVTYMGPTLRLAASTLKSGASYSARVRAWAQTYNSTWSDWSPSTTWLNYYEPGGGSGTETQPPVTNLSVSVENLCTVIWTWDPPEGASPNCTLRYFSHFDNKQDKKIAPETHRSKEVPLNERICLQVGSQCSTNESDNPSILVEKCTPPPEGDPESAVTELQCVWHNLSYMKCTWLPGRNTSPDTNYTLYYWHSSLGKILQCEDIYREGQHIGCSFALTNLKDSSFEQHSVQIVVKDNAGKIRPSFNIVPLTSHVKPDPPHIKRLFFQNGNLYVQWKNPQNFYSRCLSYQVEVNNSQTETNDIFYVEEAKCQNSEFEGNLEGTICFMVPGVLPDTLNTVRIRVRTNKLCYEDDKLWSNWSQAMSIGENTDPTPKRENGRVPRPPDCPKCPAPEMLGGPSVFIFPPKPKDTLLIARTPEVTCVVVDLDPEDPEVQISWFVDGKQMQTAKTQPREEQFNGTYRVVSVLPIGHQDWLKGKQFTCKVNNKALPSPIERTISKARGQAHQPSVYVLPPSREELSKNTVSLTCLIKDFFPPDIDVEWQSNGQQEPESKYRTTPPQLDEDGSYFLYSKLSVDKSRWQRGDTFICAVMHEALHNHYTQESLSHSPGK |
